# Measured values: patent US11739333B2, “Regulation of gene expression by aptamer-modulated RNase p cleavage” (MeiraGTx UK II Limited, priority 2017, dated 2023)
# Columns and labels:
# [1] = tested on: luciferase target gene expression in HEK 293 cells; assay: Firefly luciferase assay of cultured cells, mascRNA inserted in 3' UTR; format: cell-based; conditions: no ligand
# Protocol: Plasmid constructs: DNA fragments containing mouse mascRNA sequence and restriction sites at each end were synthesized (IDT), and digested and cloned into a plasmid backbone Con 8 that contains CMV enhancer/promoter and human beta-globin polyadenylation sequence. All constructs were verified by DNA sequencing (Genewiz).
# Firefly luciferase assay of cultured cells: 3.5×10^4 HEK 293 cells were plated in 96-well flat bottom plate the day before transfection. Plasmid DNA (500 ng) was added to a tube or a 96-well U-bottom plate. Separately, TransIT-293 reagent (Minis; 1.4 μL) was added to 50 μL opti-mem I media (Life Technologies) and allowed to sit for 5 minutes at room temperature (“RT”). Then, 50 μL of this diluted transfection reagent was added to the DNA, mixed, and incubated at RT for 20 min. Finally, 7 μL of this solution was added to a well of cells in a 96-well plate. 4 hours after transfection, medium containing transfection solution was replaced with fresh medium. 24 hours after media change, plates were removed from the incubator, and equilibrated to RT for several minutes on a lab bench, then aspirated. […] Following a 5-min incubation at RT, luminescence was measured using a Tecan machine with 500 mSec read time. The luciferase activity was expressed as mean arbitrary light unit (ALU)±S.D.
# [2] = tested on: luciferase target gene expression in HEK 293 cells (aptamer-modulated RNase P cleavage of mRNA); assay: Firefly luciferase assay of transfected cells treated with or without aptamer ligand; format: cell-based
# Protocol: Firefly luciferase assay of cultured cells: 3.5×10^4 HEK 293 cells were plated in 96-well flat bottom plate the day before transfection. Plasmid DNA (500 ng) was added to a tube or a 96-well U-bottom plate. Separately, TransIT-293 reagent (Minis; 1.4 μL) was added to 50 μL opti-mem I media (Life Technologies) and allowed to sit for 5 minutes at room temperature (“RT”). Then, 50 μL of this diluted transfection reagent was added to the DNA, mixed, and incubated at RT for 20 min. Finally, 7 μL of this solution was added to a well of cells in a 96-well plate. 4 hours after transfection, medium containing transfection solution was replaced with fresh medium. 24 hours after media change, plates were removed from the incubator, and equilibrated to RT for several minutes on a lab bench, then aspirated. Glo-lysis buffer (Promega, 100 μL, RT) was added, and the plates allowed to remain at RT for at least 5 minutes. Then, the well contents were mixed by 50 μL trituration, and 20 μL of each sample was mixed with 20 μL of bright-glo reagent (Promega) that had been diluted to 10% in glo-lysis buffer. 96 wells were spaced on an opaque white 384-well plate. Following a 5-min incubation at RT, luminescence was measured using a Tecan machine with 500 mSec read time. The luciferase activity was expressed as mean arbitrary light unit (ALU)±S.D.
# Plasmid constructs: oligonucleotide fragments containing mascRNA and guanine aptamer sequences (Mandal, M, et al., Cell 113, 577-586 (2003), incorporated herein by reference) were synthesized (IDT) and cloned into a luciferase (Luci) expression construct (Con8) in the 3′ UTR region using compatible restriction sites BamHI and XhoI. All the constructs were verified by DNA sequencing (Genewiz).
# Firefly luciferase assay of cultured cells: cells were transfected as described in Example 1. Four hours after transfection, medium containing transfection solution was replaced by medium with either 0.5% DMSO as solvent control or 500 μM guanosine (Sigma) as aptamer ligand. Twenty-two to twenty-four hours after treatment, a luciferase assay was performed as described in Example 1.
# Plasmid construction: a DNA fragment containing sequences for the guanine aptamer xpt-G and human arginine pre-tRNA (Nashimoto M. N. et al. Long 5′ leaders inhibit removal of a 3′ trailer from a precursor tRNA by mammalian tRNA 3′ processing endoribonuclease. Nucleic Acids Research, 1999; 27(13): 2770-2776) were synthesized (IDT). The synthesized DNA fragments were digested with BamHI and XhoI restriction enzymes and cloned into the Con8 construct digested with the same restriction enzymes. Construct sequences were verified by DNA sequencing (Genewiz).
# Plasmid construction: a DNA fragment containing sequences for the adenine aptamer ydhl-A (M. Mandal and R. R. Breaker, Adenine riboswitches and gene activation by disruption of a transcription terminator. Nature Structural & Molecular Biology. 2004; 11: 29-35, incorporated herein by reference) or theophylline aptamer (G. R. Zimmerman, et al. Interlocking structural motifs mediate molecular discrimination by a theophylline-binding RNA. Nature Structural Biology. 1997; 4: 644-649, incorporated herein by reference), and mascRNA sequence were synthesized (IDT). The synthesized DNA fragments were digested with BamHI and XhoI restriction enzymes and cloned into Con8 digested with the same restriction enzymes. Construct sequences were verified by DNA sequencing (Genewiz).
# Four hours after transfection, the media was aspirated, and new media with NaOH (1 mM) as solvent or 1 mM adenine (Calbiochem), or 3 mM theophylline (Sigma) was added. The induction fold was expressed as the quotient of luciferase activity obtained in the presence of aptamer ligand divided by the value obtained in the absence of the aptamer ligand. […]
molecule,measurement,setting,value
"Luci-mascRNA-mlp: luciferase construct with mascRNA mutated in the T-loop from UUC to AAG, negative control (GACGCUGGUGGCUGGCACUCCUGGUUUCCAGGACGGGGAAGAAGUCCCUGCGGUGUCU)",decrease in luciferase expression compared to the luciferase construct that has no mascRNA (Luci),[1],20%
MG3: SEQ ID NO: 12; MG1 variant with 4 alternatively shared nucleotides (nucleic acid) CCTCATAAAGGCCAAGAAGGGCGGAAAGATCGCCGTGTAAGGATCCAAGACGAGCTGTACAAGTAAAGCGGCCAATTCGGACAAAAACGAGACGCTGGTGGCTGGCACTCCTGGTTTCCAGGACGGGGTTCAAGTCCCTGCGGTGTCTGTATAATCGCGTGGATATGGCACGCAAGTTTCTACCGGGCACCGTAAATGTCCGACTACAGACAATCTAGAGTCGACCTGCAGGCATGCAAGCTTCAGCTGCTCGAGGGCCCAGATCTAATTCACCCCACCAGTGCAGGCTGCCTATCAG,basal level luciferase activity,[2]; absence of guanine,modest decrease
same,"induction fold of luciferase, with guanine versus without guanine",[2]; guanine treatment,approximately 2 fold
GM8: SEQ ID NO: 10; 3 nucleotides between effector region stem and mascRNA acceptor stem (nucleic acid) CCTCATAAAGGCCAAGAAGGGCGGAAAGATCGCCGTGTAAGGATCCAAGACGAGCTGTACAAGTAAAGAAGAGCTAATGTATAATCGCGTGGATATGGCACGCAAGTTTCTACCGGGCACCGTAAATGTCCGACTACATTAGCCGAGACGCTGGTGGCTGGCACTCCTGGTTTCCAGGACGGGGTTCAAGTCCCTGCGGTGTCTTTGCTTGGATCGGCCGCGACTCTAGAGTCGACCTGCAGGCATGCAAGCTTCAGCTGCTCGAGGGCCCAGATCTAATTCACCCCACCAGTGCAGGCTGCCTATCAG,luciferase expression in response to guanine treatment,[2]; guanine treatment,upregulate luciferase expression
GArg: SEQ ID NO: 14; GM1 with mascRNA replaced by human arginine tRNA sequence (nucleic acid) CCTCATAAAGGCCAAGAAGGGCGGAAAGATCGCCGTGTAAGGATCCAAGACGAGCTGTACAAGTAAAGAAGACTGCGACGATAATCGCGTGGATATGGCACGCAAGTTTCTACCGGGCACCGTAAATGTCCGACTCGTCGCAGGGCCAGTGGCGCAATGGATAACGCGTCTGACTACGGATCAGAAGATTCCAGGTTCGACTCCTGGCTGGCTCGGTGTAGGCCGCGACTCTAGAGTCGACCTGCAGGCATGCAAGCTTCAGCTGCTCGAGGGCCCAGATCTAATTCACCCCACCAGTGCAGGCTGCCTATCAG,basal level luciferase expression as % of control construct Con8,[2]; absence of guanine,approximately 50%
same,"induction fold of luciferase, with guanine versus without guanine",[2]; guanine treatment,1.6 fold
YM: SEQ ID NO: 15; ydhl-A adenine aptamer and mascRNA in luciferase 3' UTR (nucleic acid) CCTCATAAAGGCCAAGAAGGGCGGAAAGATCGCCGTGTAAGGATCCAAGACGAGCTGTACAAGTAAAGCGGCCGTAATGTTATAACCTCAATAATATGGTTTGAGGGTGTCTACCAGGAACCGTAAAATCCTGATTAACATTACGACGCTGGTGGCTGGCACTCCTGGTTTCCAGGACGGGGTTCAAGTCCCTGCGGTGTCTTTGCTTGGATCGGCCGCGACTCTAGAGTCGACCTGCAGGCATGCAAGCTTCAGCTGCTCGAGGGCCCAGATCTAATTCACCCCACCAGTGCAGGCTGCCTATCAG,fold increase in luciferase expression with adenine,[2]; 1 mM adenine vs NaOH solvent,3.3 fold
MG4: SEQ ID NO: 13; MG1 variant with 3 alternatively shared nucleotides (nucleic acid) CCTCATAAAGGCCAAGAAGGGCGGAAAGATCGCCGTGTAAGGATCCAAGACGAGCTGTACAAGTAAAGCGGCCAATTCGGACAAAAACGAGACGCTGGTGGCTGGCACTCCTGGTTTCCAGGACGGGGTTCAAGTCCCTGCGGTGTCTAGTATAATCGCGTGGATATGGCACGCAAGTTTCTACCGGGCACCGTAAATGTCCGACTACTAGACTTCTAGAGTCGACCTGCAGGCATGCAAGCTTCAGCTGCTCGAGGGCCCAGATCTAATTCACCCCACCAGTGCAGGCTGCCTATCAG,basal level luciferase activity,[2]; absence of guanine,modest decrease
same,"induction fold of luciferase, with guanine versus without guanine",[2]; guanine treatment,approximately 2 fold
TheoM: SEQ ID NO: 16; theophylline aptamer and mascRNA in luciferase 3' UTR (nucleic acid) CCTCATAAAGGCCAAGAAGGGCGGAAAGATCGCCGTGTAAGGATCCAAGACGAGCTGTACAAGTAAAGCGGCCTAATGTGATACCAGCCGAAAGGCCCTTGGCAGCACATTAGACGCTGGTGGCTGGCACTCCTGGTTTCCAGGACGGGGTTCAAGTCCCTGCGGTGTCTTTGCTTGGATCGGCCGCGACTCTAGAGTCGACCTGCAGGCATGCAAGCTTCAGCTGCTCGAGGGCCCAGATCTAATTCACCCCACCAGTGCAGGCTGCCTATCAG,fold increase in luciferase expression with theophylline,[2]; 3 mM theophylline vs solvent,4.1 fold
same,luciferase level as % of the control Con8 construct,[2]; absence of theophylline treatment,approximately 43.4%
